Experiment [1] concerns the target T1, human E-selectin extracellular domain with 10 His purification tail (human, UniProt P16581 22-556).
T1 construct: also called soluable human E-selectin extracellular domain; rhE-Selectin
T1 sequence: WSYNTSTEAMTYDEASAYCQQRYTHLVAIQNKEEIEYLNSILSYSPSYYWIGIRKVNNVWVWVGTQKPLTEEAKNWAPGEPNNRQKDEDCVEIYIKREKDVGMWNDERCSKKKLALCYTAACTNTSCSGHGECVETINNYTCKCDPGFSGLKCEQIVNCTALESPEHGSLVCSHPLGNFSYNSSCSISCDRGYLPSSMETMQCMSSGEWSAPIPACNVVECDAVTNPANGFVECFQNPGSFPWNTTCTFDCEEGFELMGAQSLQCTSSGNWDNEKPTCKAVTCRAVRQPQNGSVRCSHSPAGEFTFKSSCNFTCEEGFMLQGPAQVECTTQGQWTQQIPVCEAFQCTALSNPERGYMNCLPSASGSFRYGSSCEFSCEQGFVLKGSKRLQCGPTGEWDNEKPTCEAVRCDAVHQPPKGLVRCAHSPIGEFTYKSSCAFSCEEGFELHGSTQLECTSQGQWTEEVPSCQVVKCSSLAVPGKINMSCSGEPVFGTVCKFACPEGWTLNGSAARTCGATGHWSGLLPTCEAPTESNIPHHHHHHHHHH
As to the kind of experiment: SPR, antibody captured, E-selectin analyte. As for the experimental part: Final immobilization level of the capture antibody was approximately 10,000 resonance units (RU). The running buffer for immobilization and kinetics was HBS-EP+(10 mM 4-(2-hydroxyethyl)-1-piperazineethanesulfonic acid (HEPES) pH 7.4, 150 mM sodium chloride, 3 mM ethylenediaminetetraacetic acid (EDTA), 0.05% (v/v) Tween-20).
To characterize binding of antibodies to human, cynomolgus monkey, and mouse E-selectin, an antibody was diluted to 0.5 μg/mL in HBS-EP+ and captured by the anti-human IgG immobilized on flow cells 2, 3 and 4 for 30 seconds to 1 minute at a flow rate of 10 μL/minute to achieve a capture level of 70 to 300 RU. Flow cell 1 was used as a reference surface. […] HBS-EP+ buffer cycles collected for each captured antibody were used for double-referencing (Myszka D G. J. Mol. Recognition 1999; 12(5):279-84). At the end of each cycle, the entire anti-IgG surface was regenerated by a 30 second pulse of 3 M MgCl₂ and a 30 second pulse of ionic buffer (1.83 M MgCl₂, 0.92 M Urea, 1.83 M Guanidine HCl, pH 7.4) (Andersson K. Analy. Chem. 1999; 71(13): 2475-81). Kinetic assays were conducted at 25° C. at a collection rate of 10 Hertz (Hz) on a BIAcore™ T200 instrument (GE Healthcare). Rate constants and affinities were determined by fitting the data to a 1:1 binding model in BIAcore™ T200 Evaluation software version 3.0 (GE Healthcare).
This was done by first binding the antibody to immobilized anti-human IgG. After antibody capture, dilutions of the E-selectin proteins were flowed over and the association rate constant (ka), disassociation rate constant (kd), t½, and KD values were determined for binding to human and cynomolgus E-selectin (Table 13).

Experiment [2] has as its target T2, recombinant histidine-tagged human E-selectin (Sino Biologicals; 13025-H08H) (human, UniProt P16581 22-556).
T2 construct: also called recombinant human E-selectin; soluble recombinant human E-selectin
T2 sequence (looked up): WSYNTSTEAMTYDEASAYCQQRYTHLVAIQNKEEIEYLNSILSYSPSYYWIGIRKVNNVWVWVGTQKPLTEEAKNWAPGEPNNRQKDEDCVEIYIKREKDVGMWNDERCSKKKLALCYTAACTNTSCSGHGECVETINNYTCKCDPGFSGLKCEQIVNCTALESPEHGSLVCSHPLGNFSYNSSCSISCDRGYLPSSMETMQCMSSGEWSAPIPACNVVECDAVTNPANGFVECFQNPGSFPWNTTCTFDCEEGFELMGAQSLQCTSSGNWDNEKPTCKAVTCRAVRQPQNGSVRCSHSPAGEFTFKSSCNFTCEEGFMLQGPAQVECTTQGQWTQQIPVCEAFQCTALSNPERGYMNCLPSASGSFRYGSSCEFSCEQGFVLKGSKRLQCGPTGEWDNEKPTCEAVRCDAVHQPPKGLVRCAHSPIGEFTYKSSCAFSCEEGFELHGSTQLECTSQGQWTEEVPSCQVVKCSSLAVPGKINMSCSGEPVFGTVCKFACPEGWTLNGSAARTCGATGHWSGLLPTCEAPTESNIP
As to the kind of experiment: competition ELISA on soluble E-selectin vs sialyl Lewis A, further assays. As for the experimental part:
Recombinant histidine-tagged E-selectin; cynomolgus monkey E-selectin (Sino Biologicals; 190169-C08H) and human E-selectin (Sino Biologicals; 13025-H08H) stock solutions were prepared to a final concentration of 3 μg/mL in phosphate buffered saline (PBS) without calcium and magnesium. One hundred μL per well of the diluted recombinant E-selectin protein was added into a Ni-NTA HisSorb 96 well plate (Qiagen, 35061) and plates were incubated on an orbital shaker at room temperature for 2 hours. Sialyl Lewis A polyacrylamide biotin, a synthetic E-selectin ligand (GlycoTech corporation 01-044), was conjugated to streptavidin HRP (horse radish peroxidase) (Ultra Streptavidin HRP, Thermo Scientific N504) and diluted in assay diluent containing 2 mM calcium chloride (BD OptEIA buffer; BD Biosciences, 555213).
Following the incubation, the plates were washed 5 times with 200 μL of wash buffer containing 2 mM of calcium chloride (50 mM TRIS [trisaminomethane]; 150 mM sodium chloride, 0.05% polysorbate 20, pH 7.4; 2 mM of calcium chloride). […] The final antibody concentration ranged from 200 nM to 0.09 nM and the final concentration of HRP conjugated Sialyl Lewis A was 5 μg/mL. […] Reactions were stopped with 100 μl of 2M sulfuric acid and absorbance read at 450 nm (Spectramax M5e). Data were analyzed and graphed using GraphPad Prism software (Version 8.0.2).
(In general: ELISA stands for enzyme-linked immunosorbent assay.)

Substitutions are numbered along the chain they refer to.

B1: humanized anti-E-selectin antibody 0841 (antibody, human IgG1, kappa, V domains shown)
VH: EVQLVESGGGLVQPGGSLRLSCAASGYNIRSSYMHWVRQAPGKGLEWVARIDPANGNTIYAEKFKIRFTISADNAKNSAYLQMNSLRAEDTAVYYCAMDLYSTSEYWGQGTLVTVSS
VL: DIQMTQSPSSLSASVGDRVTITCKTSQNINRYLNWYQQKPGKAPKLLIYNANSLQTGVPSRFSGSGSGTDFTLTISSLQPEDFATYFCLQDNSWPLTFGQGTKVEIKR
notes: effector-null human IgG1, kappa
Take B1: in experiment [1], binding was put at a Kd of 0.0929 µM; the koff (usually the first-order rate constant of dissociation) amounted to 0.0237 s⁻¹; the kon (in general, the rate constant with which the complex forms) was determined as 255000 M⁻¹ s⁻¹; the t½ (commonly the time needed for the level to fall by half in the phase considered) worked out at 29.3 s.

B2: optimized anti-E-selectin antibody 1444 (antibody, human IgG1, kappa, V domains shown)
VH: B1 VH with N28A, S32A, A61V, E62D, K63S, F64V, K65T, I66G
VL: B1 VL with N30E, N50A, N52S, T56S, S93A
notes: as for B1
As to B2, the IC50 (in general, the concentration that inhibits the measured activity by half) in experiment [2] was found to be 0.00291 µM.

Source of the values: patent US20240076386A1 (Pfizer, published 2024).
